{"source": "paper PMC5082683", "about": "(PLoS Pathogens, 2016)", "target": "recombinant ectodomain of Gc (rGc) from Hantaan virus strain 76-118 (Hantaan virus strain 76-118, UniProt P08668)", "test": "SEC-MALS; Gc mixed with an excess of scFv A5, Tris pH 8", "details": "both partners purified", "data": [{"binder": "scFv A5 (scFv, V domains shown, also called human single-chain variable domain antibody fragment A5) VH: QVQLQESGPGLVKPSETLSLTCVVSGGSISSSNWWSWVRQPPGKGLEWIGEIYHSGSPNYNPSLKSRVTISVDKSKNQFSLKLSSVTAADTAVYYCARQMRQWGQGTLVTVSS VL: SSELTQDPAVSVALGQTVRITCQGDSLRSYYASWYQQKPGQAPVLVIYGKNNRPSGIPDRFSGSSSGNTASLTITGAQAEDEADYYCNSRDSSGNHNVFGGGTKLTVL", "values": [{"measurement": "stoichiometry N", "result": 1}]}]}
